# Results published in the supplement of paper PMC10724198.
# ± gives the standard deviation of the averaged measurements.
# Test system: Saccharomyces cerevisiae
# Experiment: protein stability index of tFT-peptide fusion (C-terminal peptide) (PSI (0-1 scale)); higher = more stable (slower turnover)
# Conditions: genetic background: wild type; temperature: 30 C
# Experimental: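 Multiplexed protein stability (MPS) profiling in S. cerevisiae. Random 12-aa peptides (tFT-X12 library) are fused to the C-terminus of a sfGFP-mCherry tandem fluorescent timer, after mCherry and a GGGS linker. Cells are FACS-sorted into 8 mCherry/sfGFP bins and deep-sequenced. The protein stability index (PSI) is the read-weighted bin average, scaled from 0 (unstable) to 1 (stable). Only peptides with >10 reads are reported; cells were grown at 30 °C in SC-His with glucose.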
# 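Also: PSI is a weighted mean of sequencing reads over stability bins, variants kept only with over 10 reads, mCherry proximal and sfGFP distal, peptide attached via GGGS linker.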
row,Sequence,protein stability index
1,CRWLAKRVKDSS,0.629 ± 0.04
2,CSAAVVQSSGSE,0.67 ± 0.034
3,CSCGRGRLARRL,0.686 ± 0.13
4,CSCPEDGILCIF,0.62 ± 0.076
5,CSDRRVAGGRGG,0.676 ± 0.073
6,CSGLFLAPSYTQ,0.713 ± 0.0096
7,CSLEREKLQEQQ,0.689 ± 0.022
8,CSLTLPFFFGSL,0.6771 ± 0.0026
9,CSSARVLPLPVP,0.661 ± 0.041
10,CSSTCRCCAAFD,0.641 ± 0.0086
11,CSVDSRLSMLVL,0.605 ± 0.044
12,CTLMPPQSRRPP,0.604 ± 0.057
13,CTLVSREHFGFL,0.685 ± 0.041
14,CTRTREDPKIGI,0.714 ± 0.024
15,CTSCDQRLQRWG,0.728 ± 0.033
16,CTYHLPFYNVLF,0.849 ± 0.19
17,CVATTHASHTSP,0.694 ± 0.033
18,CVCAIVDGGTFG,0.723 ± 0.07
19,CVDSRRCCSCFC,0.59 ± 0.074
20,CVDTNIERSCVC,0.66182 ± 0.00042
21,CVGCVVGAGVTS,0.684 ± 0.049
22,CVGPGGACVRSG,0.6894 ± 0.0017
23,CVGSVEVGHSGI,0.702 ± 0.02
24,CVKKERCDSCRV,0.715 ± 0.07
25,CVLFSGLSVDGC,0.7215 ± 0.004

row,Sequence,protein stability index
1,CVLFYPLLLPGV,0.599 ± 0.035
2,CVPLPCLPLPPS,0.66 ± 0.012
3,CVPLPPVLPRSC,0.6607 ± 0.0018
4,CVPLSAIFSAFT,0.77 ± 0.022
5,CVSYLVIFDRRY,0.6742 ± 0.0043
6,CVTFHKGRVFLR,0.609 ± 0.031
7,CWQMTWSEGLGN,0.687 ± 0.038
8,CWRVGRERRGAG,0.604 ± 0.013
9,CWYRCLLSCLVL,0.656 ± 0.033
10,CYFKTIYRNMEY,0.541 ± 0.032
11,CYHIAHPSAYVP,0.679 ± 0.041
12,CYTGMIRSTPLS,0.702 ± 0.064
13,CYVCVDVCKRGC,0.535 ± 0.18
14,DACIVRFRDTYL,0.688 ± 0.018
15,DANRSPEYSLNG,0.7169 ± 0.0062
16,DCGYPESTGTAF,0.656 ± 0.036
17,DCPHGDSPRVVS,0.628 ± 0.046
18,DDSFNPWSVRVH,0.7154 ± 0.006
19,DDSQKLTNNNEG,0.744 ± 0.013
20,DEFRVALGSVTC,0.65 ± 0.12
21,DEGLLPLPAVIP,0.746 ± 0.04
22,DERLEIKERLEF,0.739 ± 0.071
23,DERTTLMRGNNV,0.651 ± 0.017
24,DFAGVCRWSLRG,0.6446 ± 0.0025
25,DFPPRPTPLSSL,0.658 ± 0.033

row,Sequence,protein stability index
1,DFWSEFILLCSV,0.6019 ± 0.0039
2,DGAAGTGGAMGF,0.669 ± 0.068
3,DGAVRLGGGGLG,0.664 ± 0.05
4,DGCRFEFVPSGD,0.629 ± 0.023
5,DGDIIVVQINKL,0.6471 ± 0.0039
6,DGECVLGVFVGA,0.706 ± 0.045
7,DGGFAAPDVIGA,0.682 ± 0.026
8,DGGSEIWGWDGT,0.743 ± 0.12
9,DGHSMFNRLIRS,0.64232 ± 0.00017
10,DGKAGRKGFWRK,0.746 ± 0.023
11,DGNDSILTKLPL,0.714 ± 0.021
12,DGRYVDSEIDNP,0.714 ± 0.059
13,DGSRSFSYSTAG,0.642 ± 0.1
14,DGVATLYGRDVE,0.646 ± 0.033
15,DGVIVACWCRRS,0.66 ± 0.021
16,DGVRGWVGVAGD,0.698 ± 0.039
17,DGVSRSHFQCVS,0.708 ± 0.044
18,DHLPSPRPRPPP,0.7295 ± 0.0012
19,DHSAPIIPMMKV,0.6239 ± 0.0058
20,DICYGVALSQVE,0.676 ± 0.045
21,DIDGKRLLGCWI,0.6632 ± 0.00086
22,DIKKLNKKAKIK,0.777 ± 0.15
23,DIRVFFNSREGN,0.742 ± 0.022
24,DKGTGYIVKRIT,0.6872 ± 0.0044
25,DKHGELFIVCKV,0.54 ± 0.033

row,Sequence,protein stability index
1,DKKGRIKIKNRQ,0.618 ± 0.026
2,DKKKKTKINNKK,0.698 ± 0.01
3,DKWVRDCLTESR,0.691 ± 0.014
4,DLFSALWGEYVL,0.741 ± 0.013
5,DLGQVLSEASAS,0.742 ± 0.034
6,DLGRRRVGPKGA,0.717 ± 0.024
7,DLIHLVVIVPMV,0.554 ± 0.035
8,DLIKCPTNMVRL,0.646 ± 0.068
9,DLKGCVTFCTSI,0.638 ± 0.049
10,DLLKFGPKVLHL,0.6592 ± 0.0023
11,DLLLGDCGVGWF,0.647 ± 0.056
12,DLMFSLFPLSFF,0.704 ± 0.0076
13,DLRDQDAQTTST,0.692 ± 0.0088
14,DLSPPLPPPAHP,0.674 ± 0.044
15,DNQQRQKKKNKK,0.65 ± 0.013
16,DNRKIRSEKITP,0.69 ± 0.099
17,DPCWLEFRESGG,0.704 ± 0.12
18,DPEDPPRAREPQ,0.673 ± 0.038
19,DPLKSFDAVRQD,0.617 ± 0.06
20,DPPSPLPRVSPP,0.706 ± 0.068
21,DPRPPRPDFRPS,0.691 ± 0.072
22,DPRPRLNCSYEH,0.68 ± 0.014
23,DPSMSNRDRRLP,0.708 ± 0.036
24,DQKFSPYRTPPF,0.667 ± 0.058
25,DQNRSTTVPRGY,0.686 ± 0.075

row,Sequence,protein stability index
1,DQVDGLFTCSAR,0.739 ± 0.027
2,DRGCRRRCVGGG,0.683 ± 0.011
3,DRGGCRRAGSCQ,0.69 ± 0.018
4,DRHGLVGGWWAW,0.7459 ± 0.0052
5,DRLCAAPHYGTH,0.599 ± 0.045
6,DRLLLSPSPTPP,0.739 ± 0.013
7,DRLNLFSSFEGT,0.721 ± 0.053
8,DRLVGRVGGHGM,0.755 ± 0.14
9,DRNGAQAEISFV,0.6 ± 0.041
10,DRPTPPPRSSPL,0.739 ± 0.058
11,DRREKAKNMTKG,0.67 ± 0.025
12,DRRTGRAGEMSP,0.669 ± 0.064
13,DRSRLWSHPCPG,0.647 ± 0.0098
14,DRSSVLSPFHPL,0.76 ± 0.019
15,DRTDTNVKWRKK,0.696 ± 0.0077
16,DRVMTLRLTVNP,0.691 ± 0.03
17,DRWGGDWMERGG,0.749 ± 0.05
18,DSKDLTPATQVS,0.699 ± 0.013
19,DSLWACVGSSAL,0.771 ± 0.024
20,DSMLACIHPSPI,0.708 ± 0.0064
21,DSNLAVHRWYIS,0.573 ± 0.018
22,DSPRSLALFRSC,0.642 ± 0.028
23,DSQGSVHPEAQE,0.723 ± 0.012
24,DSSAFVPATILD,0.705 ± 0.026
25,DSSKFYTPATLL,0.693 ± 0.048

row,Sequence,protein stability index
1,DSSLCFAGLHNT,0.705 ± 0.054
2,DSSLHRLASLKT,0.643 ± 0.075
3,DSSLSRPGRLLP,0.73 ± 0.012
4,DSVSLPYVSRPL,0.768 ± 0.041
5,DTALMQAGSLFH,0.651 ± 0.054
6,DTPLIYSLKSEC,0.7511 ± 0.0022
7,DVLLKVDATKTP,0.685 ± 0.032
8,DVRVFQMLQGDI,0.709 ± 0.012
9,DVTKLVLSIDSC,0.751 ± 0.052
10,DWEPGGGGRMVG,0.703 ± 0.081
11,DWKLPRIEREST,0.678 ± 0.024
12,DWVDFFQSVIWI,0.761 ± 0.0079
13,DWVYISAGGRYA,0.657 ± 0.017
14,EAEEVGRVVLKG,0.643 ± 0.067
15,EAERDEAQRRCA,0.686 ± 0.0076
16,EAFARGAPNQTS,0.804 ± 0.066
17,EALELALTWHCV,0.7029 ± 0.0058
18,EANEENNSSKRD,0.686 ± 0.03
19,ECGNYRGPYRTR,0.678 ± 0.026
20,ECRGGPGLGGGV,0.635 ± 0.046
21,ECSFAGIWVDLG,0.689 ± 0.047
22,EDDQETPDTVQS,0.66 ± 0.014
23,EDHSCVFSAFCF,0.663 ± 0.045
24,EECGVIDIILGG,0.679 ± 0.013
25,EEKEKKEKDGRR,0.728 ± 0.042

row,Sequence,protein stability index
1,EEKREERGDRGR,0.579 ± 0.01
2,EEKRKRKSQNEI,0.702 ± 0.045
3,EELGGGTRNYEG,0.693 ± 0.018
4,EEMMGGAETLHQ,0.649 ± 0.036
5,EESKQKKKNEEE,0.676 ± 0.041
6,EFDCVGCFRTLR,0.6618 ± 0.0017
7,EFEDCGAWGNIG,0.621 ± 0.039
8,EFPRDLVFDWYG,0.857
9,EFRCRGPWGLEE,0.761 ± 0.17
10,EFRQVDGRASRP,0.701 ± 0.0049
11,EGAGRRYRCGWG,0.698 ± 0.049
12,EGDIFSGFPSFQ,0.741 ± 0.065
13,EGEGGKRGEGKR,0.624 ± 0.041
14,EGGETLLGAKGR,0.639 ± 0.013
15,EGGRGGVLMRGV,0.727 ± 0.013
16,EGGVRSRVRSRL,0.863 ± 0.063
17,EGKGKGRGEVKE,0.6733 ± 0.0064
18,EGKKEKKGSKGE,0.708 ± 0.052
19,EGPVYKNIGTDV,0.6823 ± 0.0013
20,EGRFRNGRAVSG,0.673 ± 0.011
21,EGRGSVVGSSEG,0.633 ± 0.035
22,EGVGLAETAGDD,0.684 ± 0.039
23,EGVKSGDGGAGG,0.63832 ± 0.00019
24,EHHLSRLKSLLR,0.709 ± 0.058
25,EHIRPNMSSYAV,0.728 ± 0.072

row,Sequence,protein stability index
1,EHKSPYGTLRFP,0.777 ± 0.11
2,EIEFRLKLGTGV,0.655 ± 0.04
3,EIKKNQKRKFDG,0.66 ± 0.041
4,EIRGGYMGEWRE,0.691 ± 0.082
5,EIRIISGIDDRR,0.628 ± 0.077
6,EITRNKRRCARR,0.674 ± 0.14
7,EKGRSGVNILRV,0.653 ± 0.011
8,EKIERDKRKKVK,0.621 ± 0.0076
9,EKIKNKDYIEKT,0.887 ± 0.094
10,EKKDKKKRKEKG,0.674 ± 0.028
11,EKKKKTKYKKKK,0.735 ± 0.052
12,EKKKQKHKKKKN,0.706 ± 0.031
13,EKKNKKRNKKNK,0.697 ± 0.058
14,EKKRAGEDGRGK,0.673 ± 0.0081
15,EKKRERRRERKE,0.65 ± 0.091
16,EKLADTTKRRRV,0.724 ± 0.026
17,EKLKNTYLNRTE,0.641 ± 0.023
18,EKNDMKKKKNRQ,0.713 ± 0.035
19,EKSNQKSRRNSR,0.638 ± 0.15
20,ELDFFIGYGVFC,0.626 ± 0.0082
21,ELDRIRPHEQSH,0.723 ± 0.03
